For assay [1], the target named is T1, α7-nAChR (native, rat hippocampal CA1 interneurons) (Rattus norvegicus, UniProt Q05941).
T1 construct: gene Chrna7; native receptor in CA1 stratum radiatum interneurons of hippocampal slices
Kind of assay: whole-cell patch clamp, hippocampal slices. As to conditions: agonist; 1 mM choline pulses, 22°C, -60 mV, pH 7.4.

The target in the next assay is LRP6 (Homo sapiens) (UniProt O75581). As to conditions: cited from earlier work.
Assay [2] concerns the target human homomeric α7 nicotinic acetylcholine receptor expressed in X. laevis oocytes (human) (UniProt P36544).
The target of assay [3] is human α3β4 nicotinic acetylcholine receptor expressed in X. laevis oocytes (human) (UniProt P32297).
In assay [4] the target is native α7 nicotinic acetylcholine receptor in interneurons of CA1 stratum radiatum, rat hippocampal slices (rat (endogenous in hippocampal slices)) (UniProt Q05941).
Assay [5] addresses human homomeric α7 nicotinic acetylcholine receptor expressed in X. laevis oocytes (human) (UniProt P36544). This is another data set of the same source.

Sequence of human homomeric α7 nicotinic acetylcholine receptor expressed in X. laevis oocytes (human) (P36544 23-502): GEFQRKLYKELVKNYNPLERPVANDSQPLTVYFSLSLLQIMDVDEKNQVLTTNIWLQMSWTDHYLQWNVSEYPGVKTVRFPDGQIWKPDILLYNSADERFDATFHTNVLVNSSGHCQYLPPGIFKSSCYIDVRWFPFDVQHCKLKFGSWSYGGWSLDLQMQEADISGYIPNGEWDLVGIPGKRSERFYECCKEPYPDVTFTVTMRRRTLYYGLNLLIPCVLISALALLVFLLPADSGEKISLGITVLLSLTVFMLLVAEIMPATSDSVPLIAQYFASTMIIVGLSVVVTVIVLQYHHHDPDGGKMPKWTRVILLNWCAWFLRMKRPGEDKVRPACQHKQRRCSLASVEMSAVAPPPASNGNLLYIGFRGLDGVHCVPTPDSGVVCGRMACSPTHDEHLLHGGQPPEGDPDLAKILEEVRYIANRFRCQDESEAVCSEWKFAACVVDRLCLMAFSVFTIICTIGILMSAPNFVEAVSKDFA
Sequence of LRP6 (Homo sapiens) (O75581 20-1370): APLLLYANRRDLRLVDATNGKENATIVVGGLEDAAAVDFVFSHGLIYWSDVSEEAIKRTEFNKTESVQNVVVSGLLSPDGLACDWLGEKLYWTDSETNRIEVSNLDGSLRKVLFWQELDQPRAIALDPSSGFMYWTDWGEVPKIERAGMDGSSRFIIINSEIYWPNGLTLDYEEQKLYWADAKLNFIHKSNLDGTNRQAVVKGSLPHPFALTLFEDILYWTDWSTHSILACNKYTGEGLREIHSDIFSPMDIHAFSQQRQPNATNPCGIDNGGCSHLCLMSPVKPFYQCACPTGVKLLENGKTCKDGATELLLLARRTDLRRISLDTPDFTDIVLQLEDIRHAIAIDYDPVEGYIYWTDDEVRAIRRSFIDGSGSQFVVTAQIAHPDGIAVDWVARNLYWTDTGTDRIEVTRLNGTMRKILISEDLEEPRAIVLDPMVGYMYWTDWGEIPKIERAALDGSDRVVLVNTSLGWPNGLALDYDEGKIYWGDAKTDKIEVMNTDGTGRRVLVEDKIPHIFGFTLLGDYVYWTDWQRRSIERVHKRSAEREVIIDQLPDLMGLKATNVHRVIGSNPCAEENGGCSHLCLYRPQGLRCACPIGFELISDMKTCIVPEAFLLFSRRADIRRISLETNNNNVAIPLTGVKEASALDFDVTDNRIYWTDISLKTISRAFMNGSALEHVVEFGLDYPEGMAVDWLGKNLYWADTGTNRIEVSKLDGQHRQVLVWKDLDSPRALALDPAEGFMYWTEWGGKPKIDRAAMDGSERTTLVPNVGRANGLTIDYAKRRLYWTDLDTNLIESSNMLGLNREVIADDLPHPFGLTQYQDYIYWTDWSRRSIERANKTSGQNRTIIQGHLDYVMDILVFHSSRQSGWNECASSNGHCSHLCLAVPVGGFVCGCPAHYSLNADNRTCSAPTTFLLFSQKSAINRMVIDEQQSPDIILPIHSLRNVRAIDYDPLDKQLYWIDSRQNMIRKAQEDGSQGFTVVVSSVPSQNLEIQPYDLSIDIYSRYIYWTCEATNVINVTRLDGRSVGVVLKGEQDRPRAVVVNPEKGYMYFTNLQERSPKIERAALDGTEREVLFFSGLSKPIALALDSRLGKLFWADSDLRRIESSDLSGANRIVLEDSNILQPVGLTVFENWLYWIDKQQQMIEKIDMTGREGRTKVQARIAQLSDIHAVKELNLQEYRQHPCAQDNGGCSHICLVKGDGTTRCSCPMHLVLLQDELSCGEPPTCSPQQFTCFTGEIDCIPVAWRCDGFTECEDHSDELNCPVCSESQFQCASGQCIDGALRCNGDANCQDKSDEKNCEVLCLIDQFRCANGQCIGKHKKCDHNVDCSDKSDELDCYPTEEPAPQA
Sequence of human α3β4 nicotinic acetylcholine receptor expressed in X. laevis oocytes (human) (P32297 32-505, chain 1 of 2): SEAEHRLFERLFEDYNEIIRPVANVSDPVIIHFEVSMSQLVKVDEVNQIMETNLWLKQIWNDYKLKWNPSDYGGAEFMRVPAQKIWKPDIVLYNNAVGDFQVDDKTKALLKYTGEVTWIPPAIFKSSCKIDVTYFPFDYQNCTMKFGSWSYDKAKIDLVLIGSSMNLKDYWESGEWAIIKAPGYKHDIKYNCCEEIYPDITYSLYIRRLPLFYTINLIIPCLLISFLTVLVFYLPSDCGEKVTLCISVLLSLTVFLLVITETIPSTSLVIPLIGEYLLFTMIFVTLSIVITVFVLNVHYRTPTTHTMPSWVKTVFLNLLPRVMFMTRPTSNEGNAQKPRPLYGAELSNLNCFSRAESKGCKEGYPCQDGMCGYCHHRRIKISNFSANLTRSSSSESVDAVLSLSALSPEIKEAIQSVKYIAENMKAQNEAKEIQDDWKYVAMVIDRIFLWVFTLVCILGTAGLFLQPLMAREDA
Sequence of human α3β4 nicotinic acetylcholine receptor expressed in X. laevis oocytes (human) (P30926 22-498, chain 2 of 2, further chain): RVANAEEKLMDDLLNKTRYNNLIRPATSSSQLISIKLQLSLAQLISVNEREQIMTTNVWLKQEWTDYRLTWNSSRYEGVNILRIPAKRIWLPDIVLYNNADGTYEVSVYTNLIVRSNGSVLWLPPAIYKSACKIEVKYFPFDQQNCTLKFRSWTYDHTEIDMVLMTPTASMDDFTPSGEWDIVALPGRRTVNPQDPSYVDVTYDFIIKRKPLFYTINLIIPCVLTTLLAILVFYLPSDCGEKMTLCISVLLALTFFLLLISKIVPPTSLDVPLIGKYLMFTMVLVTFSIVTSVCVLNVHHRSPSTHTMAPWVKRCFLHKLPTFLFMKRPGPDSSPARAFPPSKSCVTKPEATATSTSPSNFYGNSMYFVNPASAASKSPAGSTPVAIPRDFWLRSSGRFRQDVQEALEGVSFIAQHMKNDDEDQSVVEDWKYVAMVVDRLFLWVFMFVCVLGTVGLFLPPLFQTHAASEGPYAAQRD
Sequence of native α7 nicotinic acetylcholine receptor in interneurons of CA1 stratum radiatum, rat hippocampal slices (rat (endogenous in hippocampal slices)) (Q05941 23-502): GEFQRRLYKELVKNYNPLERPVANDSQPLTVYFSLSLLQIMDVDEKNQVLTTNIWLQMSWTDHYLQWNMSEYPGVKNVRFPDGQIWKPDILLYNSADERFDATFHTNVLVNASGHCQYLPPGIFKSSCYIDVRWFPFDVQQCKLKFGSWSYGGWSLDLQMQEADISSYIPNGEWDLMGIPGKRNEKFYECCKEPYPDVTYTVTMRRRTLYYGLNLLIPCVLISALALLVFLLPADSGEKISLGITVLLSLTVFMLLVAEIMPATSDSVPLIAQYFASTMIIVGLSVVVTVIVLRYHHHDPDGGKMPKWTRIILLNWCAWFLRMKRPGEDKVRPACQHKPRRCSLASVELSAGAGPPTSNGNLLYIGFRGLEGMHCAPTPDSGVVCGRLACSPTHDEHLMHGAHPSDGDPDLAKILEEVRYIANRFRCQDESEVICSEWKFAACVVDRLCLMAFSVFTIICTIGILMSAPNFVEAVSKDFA
T1 sequence (Q05941 23-502): as above

`C[N+](C)(C)CCO` [Choline]: the “whole-cell patch clamp, hippocampal slices” value in assay [1] is recorded as “Application of choline induced the robust currents in the interneurons of CA1 str. radiatum”.

As usually defined, the Kd is a measure of binding affinity in units of concentration. With Lypd6 (from UniProt Q86Y78), in the assay with LRP6 (Homo sapiens), the Kd was 1 µM.

In assay [2], “recombinant water-soluble variant of human Lypd6 containing the isolated three-finger LU-domain (ws-Lypd6) (domain or fragment)” yielded an IC50 of inhibition of ACh-evoked currents (100 μM ACh, 15 s pre-incubation), two-electrode voltage clamp, X. laevis oocytes of 10.9 µM. The same molecule returned an IC50 of inhibition of ACh-evoked currents (100 μM ACh, 5 min pre-incubation), two-electrode voltage clamp, X. laevis oocytes in assay [3] of 34.9 µM. Moreover, the amplitude of choline-evoked currents (1 mM choline) with 1 μM ws-Lypd6, whole-cell patch clamp in rat hippocampal slices with 8 μM DhβE; reversed by washout (% of the control value) in assay [4] was found to be 72.

B1: isolated water-soluble LU-domain of Lypd6b (ws-Lypd6b) (domain or fragment)
chain: FKCFTCENAGDNYNCNRWAEDKWCPQNTQYCLTVHHFTSHGRSTSITKKCASRSECHFVGCHHSRDSEHTECRSCCEGMICNVELPTNHTNAVFA
Take B1: the reduction of the ACh-evoked current amplitude by 30 μM ws-Lypd6b (100 μM ACh), two-electrode voltage clamp, X. laevis oocytes in assay [5] came out at 20%.
